In patent publication US20170176465, “RNA APTAMER AND SENSOR EMPLOYING SAME” (Kyocera Corporation, published 2017):

Assays:
[1] = target: Human serum albumin (HSA) (Homo sapiens, UniProt P02768 P02768:25-609); assay: surface acoustic wave sensor; 5'-thiol aptamer; conditions: label: 5'-biotin, 5'-amino or 5'-thiol
Protocol: (§1) (11) A hemoglobin sample having been diluted into 11.6 μM with HBS-P(+MgCl2) was introduced through the passage 15 to the sensing element 3. Then, the amount of phase change occurring after 5 minutes of reaction was measured. Similarly, measurement was performed with employing human serum albumin (HSA) as a sample. Further, as for the hemoglobin sample, measurement was performed on samples of various concentrations.

[2] = target: Hemoglobin (Hb), full length (Homo sapiens, UniProt P69905;P68871 P69905:2-142,P68871:2-147); assay: surface acoustic wave sensor phase change; 11.6 uM Hb; signal rises with Hb concentration; HBS-P + MgCl2; conditions: tags: Abcam ab77858; chain copies: 2,2; label: 5'-biotin, 5'-amino or 5'-thiol
Protocol: as §1

Hemoglobin (Hb), full length, sequence (P69905 2-142, chain 1 of 2): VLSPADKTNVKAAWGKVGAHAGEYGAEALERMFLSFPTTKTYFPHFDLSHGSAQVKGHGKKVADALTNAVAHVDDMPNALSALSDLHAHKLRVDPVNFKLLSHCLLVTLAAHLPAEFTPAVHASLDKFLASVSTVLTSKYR
Hemoglobin (Hb), full length, sequence (P68871 2-147, chain 2 of 2): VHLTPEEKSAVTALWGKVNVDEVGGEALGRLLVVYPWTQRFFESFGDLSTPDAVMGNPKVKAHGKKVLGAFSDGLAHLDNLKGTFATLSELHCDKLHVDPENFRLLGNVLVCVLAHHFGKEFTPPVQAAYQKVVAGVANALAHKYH
Human serum albumin (HSA), sequence (P02768 25-609, one chain of several): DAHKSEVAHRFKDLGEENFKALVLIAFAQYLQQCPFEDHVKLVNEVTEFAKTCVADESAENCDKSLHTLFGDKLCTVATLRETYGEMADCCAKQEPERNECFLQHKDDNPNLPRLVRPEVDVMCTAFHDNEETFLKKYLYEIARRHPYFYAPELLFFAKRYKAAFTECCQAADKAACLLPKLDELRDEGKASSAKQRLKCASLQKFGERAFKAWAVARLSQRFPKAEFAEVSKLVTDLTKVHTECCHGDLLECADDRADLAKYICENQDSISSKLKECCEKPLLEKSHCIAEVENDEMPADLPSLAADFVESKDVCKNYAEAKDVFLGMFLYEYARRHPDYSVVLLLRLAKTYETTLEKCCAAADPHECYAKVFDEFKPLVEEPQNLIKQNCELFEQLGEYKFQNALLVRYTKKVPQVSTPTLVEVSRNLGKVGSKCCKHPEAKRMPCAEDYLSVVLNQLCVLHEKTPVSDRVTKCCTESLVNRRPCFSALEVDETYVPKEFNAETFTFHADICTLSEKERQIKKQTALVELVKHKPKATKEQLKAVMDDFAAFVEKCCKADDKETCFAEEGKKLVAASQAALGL

B1: 6R_28 partial (36-mer) (ssRNA)
RNA: CGUAUUACGGCAUUAUUAGGACCAAUGCUGAGUACG
B1: no binding [1]; binds [2].
